Source: the supplement of paper PMC10126150
± gives the standard deviation of the averaged measurements.

System: ATP
Test: switch fluorescence ratio, 500 uM ATP over buffer (Cy3 cluster intensity, sum of 5 cycles each) (fold (ratio)); higher = stronger signal-on switching upon ATP binding; sequences stand for … in TCGTCGGCAGCGTCAGATGTGTATAAGAGACAGTTTTTTTTTTTTTTTTTTTTTTTTT…TC
Conditions: aptamer strand: ATP DNA aptamer (quencher-CACCTGGGGGAGTATTGCGGAGGAAGG + anchor), 100 nM annealed; ATP concentration: 500 uM
In short: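 Exposure to 500 uM ATP lasted 15 min at 22 °C before imaging, and a selection-buffer image was taken beforehand, for Cy3-labelled switching-strand clusters on a modified Illumina MiSeq flow-cell annealed to 100 nM quencher-labelled ATP aptamer. Five buffer/ATP cycles were run with NaOH stripping and re-annealing between them. The fluorescence ratio per cluster is summed target-cycle over summed buffer-cycle Cy3 intensity, averaged per switch-domain sequence. Clusters outside 100-1000 RFU were excluded.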

| Sequence | switch fluorescence ratio |
| --- | --- |
| ACAGGACTTA | 1.09 ± 0.021 |
| GGTTGGATTA | 0.9787 ± 0.00083 |
| GGAACGCAGG | 0.9981 ± 0.0022 |
| ATTTTTTGAA | 0.997 ± 0.019 |
| TAGCGGGCGC | 0.986 ± 0.032 |
| TAGTTGGGTT | 0.986 ± 0.041 |
| CGGAGGGGTG | 1.02 ± 0.022 |
| TTGTAAGGTC | 1 ± 0.031 |
| CCGCGGGGTT | 1.2 ± 0.084 |
| AGGTTACCGC | 1.03 ± 0.048 |
| GCGCTCGGCA | 1.019 ± 0.00084 |
| GGGTAGTGTA | 0.995 ± 0.012 |
| GTGTCCTTAT | 0.998 ± 0.074 |
| GTATTGTTTT | 1.14 ± 0.16 |
| GAAAGAGTTC | 0.99729 ± 0.00094 |
| TTGAAAATGA | 0.979 ± 0.016 |
| GCAGTAAAAC | 1.694 ± 0.013 |
| TTTTCCTCGC | 2.86 ± 0.27 |
| GATTGTTCTC | 0.981 ± 0.011 |
| GAATGTGACG | 1.02 ± 0.013 |
| TTTTTTTTCC | 1.15 ± 0.4 |
| GGGAGGTAGG | 0.991 ± 0.01 |
| TAATTCGGTT | 1 ± 0.021 |
| TGTTGTGCAG | 0.958 ± 0.03 |
| AGTGCGTCTT | 1.01 ± 0.021 |

| Sequence | switch fluorescence ratio |
| --- | --- |
| CCTAGGAGCC | 1.05 ± 0.026 |
| AAGGGTTGCT | 1.01 ± 0.042 |
| GAATTTTATG | 0.9549 ± 0.0062 |
| ATTGTTTGTT | 1.01 ± 0.016 |
| TGAGGGTAAG | 1.13 ± 0.21 |
| GGTGGATACA | 1.005 ± 0.0036 |
| CAACAAGGGA | 1.04 ± 0.018 |
| GCATGGGTGG | 1 ± 0.023 |
| ACCCGTTTTG | 1.01 ± 0.025 |
| ATATTTAGAG | 0.992 ± 0.027 |
| GGGGGACCGA | 1.02 ± 0.023 |
| TGAATTTAGT | 0.9729 ± 0.0089 |
| CTGGTAGGGT | 1.02 ± 0.02 |
| TAGACTTTGG | 0.968 ± 0.025 |
| GCGATAGTGG | 0.974 ± 0.011 |
| AATGCCGGCC | 1.08 ± 0.028 |
| TAGAGGAG | 1.01 ± 0.05 |
| GGGTGCCGTG | 1.03 ± 0.047 |
| TTTTTGCATC | 1.2 ± 0.27 |
| CTGTTTAGTC | 1.01 ± 0.015 |
| GCCTAGGGTT | 1 ± 0.023 |
| CCGTTGAGCG | 1.03 ± 0.03 |
| ATGAGTATTG | 0.9888 ± 0.0078 |
| GCGCCGTGGC | 0.99035 ± 0.00081 |
| TTGGGTATTT | 0.986 ± 0.021 |

| Sequence | switch fluorescence ratio |
| --- | --- |
| GGTTTTAAGT | 1.01 ± 0.04 |
| CGCGGATTCT | 1.04 ± 0.021 |
| TAAGGCCACG | 0.9975 ± 0.0099 |
| GCAAGTTGAT | 0.96591 ± 0.00067 |
| AGGCCGAGGA | 0.991 ± 0.018 |
| CGGGCAGTTT | 1.03 ± 0.041 |
| TCGTTAAACT | 1.02 ± 0.011 |
| AATGTAAGGA | 1.03 ± 0.065 |
| GACCTTTTT | 1.02 ± 0.042 |
| ACGTTATTTT | 1.126 ± 0.0061 |
| CTAGCATGAT | 1.03 ± 0.061 |
| GAGAAGGATT | 0.99 ± 0.046 |
| TTTTTAACGA | 0.9688 ± 0.009 |
| GACAACATTT | 0.9967 ± 0.004 |
| GGGTGTTCTG | 1.01 ± 0.018 |
| ATTTTGCTCT | 1.02 ± 0.026 |
| GCGAGATCTT | 0.968 ± 0.015 |
| TTAAAAAACG | 1.04 ± 0.052 |
| AAAGGCCGGA | 1.03 ± 0.041 |
| GATGATTATG | 0.993 ± 0.011 |
| AGTGGGGGGC | 0.998 ± 0.02 |
| AAGTTTGTAG | 1 ± 0.03 |
| TTAACGGTGT | 1.004 ± 0.005 |
| CGAAAGGTTG | 0.939 ± 0.017 |
| TGATGTCGGG | 0.999 ± 0.034 |

| Sequence | switch fluorescence ratio |
| --- | --- |
| CGCCCGTAGG | 1.05 ± 0.011 |
| TCTGCTAAAA | 0.973 ± 0.041 |
| AGGTAATAGT | 1.03 ± 0.028 |
| TGGTTATGGT | 0.992 ± 0.037 |
| AGAATAGGGG | 0.9762 ± 0.0083 |
| CTACGAGGTA | 1.045 ± 0.0027 |
| TTGCATAGTG | 0.9536 ± 0.0026 |
| TGATGCTTCA | 1 ± 0.037 |
| AATCTTCTAT | 1.01 ± 0.024 |
| GGTTTTGATG | 0.98 ± 0.039 |
| TTTTTGGACA | 0.993 ± 0.019 |
| GGTGATAAAT | 0.991 ± 0.025 |
| GGGGTAGCCT | 1 ± 0.04 |
| GGGTACTAGT | 1.05 ± 0.023 |
| TTGGGGGCCA | 0.9898 ± 0.0041 |
| CTCGTTGCGG | 1.06 ± 0.07 |
| ACAGACTCGC | 1.01 ± 0.019 |
| CTAAACAGGG | 1.03 ± 0.011 |
| GTGGAATGGG | 0.983 ± 0.055 |
| GTTGTTGTGG | 1.02 ± 0.034 |
| ATCAACACCG | 1.06 ± 0.034 |
| TTTAAGTAAG | 1.02 ± 0.012 |
| ACTAGTTTTG | 0.976 ± 0.033 |
| TTGCGGGGCC | 1.04 ± 0.051 |
| TAATACGTTG | 1.03 ± 0.012 |

| Sequence | switch fluorescence ratio |
| --- | --- |
| AACAAAACAA | 1.04 ± 0.055 |
| TGCCGTTTGG | 1 ± 0.03 |
| GGGGTGATCT | 1.02 ± 0.034 |
| TTTCATTTGT | 1.02 ± 0.075 |
| GTTTTCAGCG | 1.01 ± 0.022 |
| TGAGTTGGAG | 0.9878 ± 0.002 |
| ATAGGTTGTT | 0.973 ± 0.016 |
| TTGATGGGGA | 0.982 ± 0.014 |
| TGTGGCCCAC | 0.989 ± 0.017 |
| AGGCAGTTTC | 0.988 ± 0.049 |
| CGGATAATTT | 1.01 ± 0.047 |
| ATATCAAGGA | 1 ± 0.029 |
| GCGGTTGTCG | 1.01 ± 0.03 |
| TTAATGAAGG | 1 ± 0.025 |
| ATTAGTTGGC | 0.993 ± 0.027 |
| ACTATATTTA | 1.034 ± 0.0063 |
| AAAAGTTGGG | 1.01 ± 0.014 |
| CGTCATTTTC | 1.05 ± 0.1 |
| CCAGTTTTTT | 1.002 ± 0.0099 |
| AATATTTGTG | 1.15 ± 0.23 |
| AATGGTGGCC | 1 ± 0.018 |
| ATTTGAGATT | 1 ± 0.018 |
| TGTTAAAGGA | 0.991 ± 0.022 |
| GCTTGGTGTC | 1.05 ± 0.014 |
| TTGAATGCAT | 0.969 ± 0.13 |

| Sequence | switch fluorescence ratio |
| --- | --- |
| AGACTGAGTT | 0.984 ± 0.016 |
| GCGGAAGGGT | 1 ± 0.04 |
| TTGCTTGGTG | 1.03 ± 0.017 |
| GACTACTGTA | 1.04 ± 0.051 |
| GGGAGTGGCA | 1.08 ± 0.15 |
| TACGGGTTCG | 0.99 ± 0.028 |
| GACATTTTTT | 0.978 ± 0.036 |
| TTTGTTTCCA | 0.962 ± 0.012 |
| TGAGGTGTTG | 1.01 ± 0.063 |
| GGGGGGGATA | 1 ± 0.038 |
| TGCAGTGTGG | 1.005 ± 0.0078 |
| TTTTGGTCTT | 1 ± 0.028 |
| AGTGTGTCGG | 0.974 ± 0.067 |
| GGCATTTCTA | 1.04 ± 0.018 |
| TGCGGCTG | 1.05 ± 0.039 |
| AGCCTAAGAT | 0.963 ± 0.012 |
| ATGTATAAAT | 0.9743 ± 0.009 |
| GGTCGGTTGG | 0.97591 ± 0.00041 |
| GCAGCCGAAT | 1.04 ± 0.0093 |
| GGGGTTATTT | 0.988 ± 0.038 |
| GGGACCGTGT | 1.01 ± 0.028 |
| GGATAAAAGG | 0.988 ± 0.011 |
| ATTATAGGGT | 1.03 ± 0.026 |
| AGTATTGTCT | 1.039 ± 0.003 |
| CCTTTGCAGG | 2.45 ± 0.27 |

| Sequence | switch fluorescence ratio |
| --- | --- |
| GGCAATTATT | 1.02 ± 0.026 |
| TAAAAACCAT | 1.01 ± 0.046 |
| TCGTGGACGC | 0.995 ± 0.031 |
| TTCAGAGACT | 1 ± 0.034 |
| GGGTGTACGG | 1.04 ± 0.024 |
| CATGCCGGGA | 1.22 ± 0.38 |
| AGGCGCAAGC | 1.07 ± 0.048 |
| GATGATTTGT | 1.02 ± 0.058 |
| AATCGTACAG | 1.07 ± 0.019 |
| CCGCCATAAG | 3.42 ± 0.68 |
| CAAATACTTG | 1.04 ± 0.019 |
| CTAGCCATTG | 0.995 ± 0.022 |
| GTGCGCAGAT | 0.982 ± 0.022 |
| CCAGGCAAGC | 2.46 ± 1.3 |
| CATTGGGGGG | 0.99 ± 0.038 |
| GGGCCAGTAT | 0.963 ± 0.017 |
| CAGGGGTTGG | 1.02 ± 0.028 |
| AGGCCGTCCT | 1.02 ± 0.1 |
| CGAATGGGAC | 1.042 ± 0.007 |
| AGGTTGGGTA | 0.979 ± 0.015 |
| AGGCGGAGTT | 0.97011 ± 0.00078 |
| TTAGGTTAGA | 0.993 ± 0.014 |
| TATAAATTGC | 1.01 ± 0.016 |
| TAGGGGGGCA | 0.991 ± 0.041 |
| AGGAGGCATT | 1.02 ± 0.02 |

| Sequence | switch fluorescence ratio |
| --- | --- |
| TCAGGAGTCT | 0.977 ± 0.062 |
| TTTCTCCCTT | 1.19 ± 0.13 |
| CGGGGTTGTC | 0.966 ± 0.069 |
| TTATTTTGAC | 1 ± 0.023 |
| ATTGTGGGCT | 0.967 ± 0.063 |
| CAAAGATGG | 0.947 ± 0.013 |
| AGGTAGAGTA | 0.97 ± 0.034 |
| TTTTGCACGC | 1.28 ± 0.2 |
| CAGGGCCATG | 1.009 ± 0.0014 |
| AGAGTACTGG | 1.01 ± 0.01 |
| ACTGGGTTTT | 1.022 ± 0.0022 |
| TGCTTCGGGA | 1.1288 ± 0.0008 |
| GCGAATCGGT | 1.01 ± 0.022 |
| CTCGGAGGGA | 0.985 ± 0.04 |
| TTATTGACGT | 1.003 ± 0.0024 |
| GGGAATGGTG | 1.035 ± 0.0095 |
| ACACTTAAGT | 1.02 ± 0.029 |
| CGAAGTTTCG | 1.02 ± 0.017 |
| AGAGCTGGGG | 0.9849 ± 0.0079 |
| CTCGGTTAGG | 0.9819 ± 0.0095 |
| TTTAGCAGGT | 1.05 ± 0.014 |
| TCATGGGGAG | 1.03 ± 0.033 |
| AAGGAGGGT | 0.9965 ± 0.0096 |
| CGTGGTTTTT | 1.01 ± 0.023 |
| TCATGAGGGG | 0.972 ± 0.036 |
